{
  "source": "patent US20250018014A1",
  "about": "“METHOD FOR TREATING AND/OR PREVENTING REGNASE-1-RELATED DISEASE” (OSAKA UNIVERSITY, priority 2018, published 2025)",
  "binders": {"B1": {"name": "PP1 (peptide)", "peptide": "XTSWYKVNWGQD", "HELM": "PEPTIDE1{[meA].T.S.W.Y.K.V.N.W.G.Q.D.[C1CCN([*:1])C1]}$PEPTIDE1,PEPTIDE1,1:R1-12:R3$$$V2.0", "SMILES": "CC(C)[C@@H]1NC(=O)[C@H](CCCCN)NC(=O)[C@H](Cc2ccc(O)cc2)NC(=O)[C@H](Cc2c[nH]c3ccccc23)NC(=O)[C@H](CO)NC(=O)[C@H]([C@@H](C)O)NC(=O)[C@H](C)N(C)C(=O)C[C@@H](C(=O)N2CCCC2)NC(=O)[C@H](CCC(N)=O)NC(=O)CNC(=O)[C@H](Cc2c[nH]c3ccccc23)NC(=O)[C@H](CC(N)=O)NC1=O"}},
  "assay_in_all_cases": "cell-based or functional assay",
  "key": {"[1]": {"molecular_target": "T1, C-terminal domain-deleted human Regnase-1 (amino acids 1 to 546) with N-terminal FLAG tag and C-terminal BirA … (human, UniProt Q5D1E8 1-546)", "T1 sequence": "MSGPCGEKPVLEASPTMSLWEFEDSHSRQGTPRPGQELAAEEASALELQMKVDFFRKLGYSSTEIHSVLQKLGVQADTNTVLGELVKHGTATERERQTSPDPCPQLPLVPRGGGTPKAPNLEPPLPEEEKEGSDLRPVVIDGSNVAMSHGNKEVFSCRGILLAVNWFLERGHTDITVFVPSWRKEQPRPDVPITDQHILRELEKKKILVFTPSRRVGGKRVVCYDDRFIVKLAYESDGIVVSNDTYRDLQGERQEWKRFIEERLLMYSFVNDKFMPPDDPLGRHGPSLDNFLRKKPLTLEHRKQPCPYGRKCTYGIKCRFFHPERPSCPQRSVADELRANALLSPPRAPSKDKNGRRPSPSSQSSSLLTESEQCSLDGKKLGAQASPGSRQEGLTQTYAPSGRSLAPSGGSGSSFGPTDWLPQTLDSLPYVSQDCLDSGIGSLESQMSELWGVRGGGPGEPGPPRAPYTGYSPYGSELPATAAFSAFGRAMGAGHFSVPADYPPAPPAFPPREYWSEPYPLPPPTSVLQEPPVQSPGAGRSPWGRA"}, "[2]": {"molecular_target": "T2, full-length human Regnase-1 with a FLAG tag on the N-terminal side and a biotin ligase BirA recognition … (human, UniProt Q5D1E8 1-599, biotinylated at the BirA recognition sequence when required)", "T2 sequence": "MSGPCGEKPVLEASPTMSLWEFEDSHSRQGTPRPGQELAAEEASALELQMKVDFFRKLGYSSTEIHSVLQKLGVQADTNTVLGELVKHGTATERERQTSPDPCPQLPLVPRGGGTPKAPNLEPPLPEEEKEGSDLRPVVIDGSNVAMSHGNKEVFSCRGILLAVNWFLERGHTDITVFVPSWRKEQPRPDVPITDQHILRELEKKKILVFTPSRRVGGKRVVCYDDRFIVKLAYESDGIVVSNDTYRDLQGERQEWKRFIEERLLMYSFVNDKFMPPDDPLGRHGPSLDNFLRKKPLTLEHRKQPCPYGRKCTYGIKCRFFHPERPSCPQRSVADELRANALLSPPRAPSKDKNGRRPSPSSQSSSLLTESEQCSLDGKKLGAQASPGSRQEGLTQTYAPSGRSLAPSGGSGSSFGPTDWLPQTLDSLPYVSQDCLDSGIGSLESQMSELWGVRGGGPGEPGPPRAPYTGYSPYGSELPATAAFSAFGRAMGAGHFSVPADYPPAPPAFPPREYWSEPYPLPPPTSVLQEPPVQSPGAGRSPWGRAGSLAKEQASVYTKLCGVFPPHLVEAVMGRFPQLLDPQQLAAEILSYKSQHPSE"}, "[3]": {"molecular_target": "T3, C-terminal human Regnase-1 (amino acids 301 to 599) with N-terminal FLAG tag and C-terminal BirA recognition … (human, UniProt Q5D1E8 301-599)", "T3 sequence": "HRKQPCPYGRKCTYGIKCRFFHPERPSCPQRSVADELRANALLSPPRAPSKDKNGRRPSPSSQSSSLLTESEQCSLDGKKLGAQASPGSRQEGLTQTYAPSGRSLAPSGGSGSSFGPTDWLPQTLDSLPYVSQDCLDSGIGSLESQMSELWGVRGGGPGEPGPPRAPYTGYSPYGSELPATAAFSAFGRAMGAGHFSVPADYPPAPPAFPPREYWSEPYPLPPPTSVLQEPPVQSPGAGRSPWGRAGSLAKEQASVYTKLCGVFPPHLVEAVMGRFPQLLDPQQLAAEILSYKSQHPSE"}, "[4]": {"molecular_target": "T1, C-terminal domain-deleted human …", "remark": "listed apart in the source"}, "[5]": {"molecular_target": "T2, full-length human Regnase-1 with a FLAG …", "remark": "listed apart in the source"}, "[6]": {"molecular_target": "T3, C-terminal human Regnase-1 (amino acids …)", "remark": "listed apart in the source"}, "[7]": {"molecular_target": "T1, C-terminal domain-deleted human …", "remark": "listed apart in the source"}, "[8]": {"molecular_target": "T2, full-length human Regnase-1 with a FLAG …", "remark": "listed apart in the source"}},
  "note": "Like-named read-outs stand apart in the source and are kept apart here.",
  "data": [
    {"binder": "B1", "values": [
      {"measurement": "50% inhibition concentration, Regnase-1 phosphorylation by TBK1 (AlphaScreen)", "setting": "[1]", "value": "> 62.1", "unit": "µM"},
      {"measurement": "50% inhibition concentration, Regnase-1 phosphorylation by TBK1 (AlphaScreen)", "setting": "[2]", "value": 54.5, "unit": "µM"},
      {"measurement": "50% inhibition concentration, Regnase-1 phosphorylation by TBK1 (AlphaScreen)", "setting": "[3]", "value": "> 62.1", "unit": "µM"},
      {"measurement": "50% inhibition concentration, Regnase-1 phosphorylation by IKKβ (AlphaScreen)", "setting": "[4]", "value": "> 62.1", "unit": "µM"},
      {"measurement": "50% inhibition concentration, Regnase-1 phosphorylation by IKKβ (AlphaScreen)", "setting": "[5]", "value": 28.1, "unit": "µM"},
      {"measurement": "50% inhibition concentration, Regnase-1 phosphorylation by IKKβ (AlphaScreen)", "setting": "[6]", "value": "> 62.1", "unit": "µM"},
      {"measurement": "50% inhibition concentration, Regnase-1 phosphorylation by IKKβ (AlphaScreen)", "setting": "[7]", "value": "> 62.1", "unit": "µM"},
      {"measurement": "50% inhibition concentration, Regnase-1 phosphorylation by TBK1 (AlphaScreen)", "setting": "[7]", "value": "> 62.1", "unit": "µM"},
      {"measurement": "50% inhibition concentration, Regnase-1 phosphorylation by IKKβ (AlphaScreen)", "setting": "[8]", "value": 28.1, "unit": "µM"},
      {"measurement": "50% inhibition concentration, Regnase-1 phosphorylation by TBK1 (AlphaScreen)", "setting": "[8]", "value": 54.5, "unit": "µM"}
    ]}
  ]
}
